From the supplement of paper PMC10567573

B1: MTMR15 (parent)
chain: YVKAKKSIDKDEEFAGSSPQSSKS
B2: EMD (parent)
chain: YQSKGYNDDYYEESYFTTRTYGEP

Variants of: B1
Assay: protein stability index of a GFP-peptide fusion (GPS, HEK-293T) (PSI 1-6); higher = more stable
Details: c terminus: a fixed tail appended
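Further: lentivirally expressed fusions sorted by FACS into six bins by GFP to DsRed ratio, PSI derived from sequencing read proportions per bin multiplied by bin number.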

Protein stability index, by site and new letter:
S17: N 2.9, V 2.35, R 2.91, E 3.59, W 4.48, D 3.03, A 2.8, H 3.07, K 3.21, C 3.01, I 2.96, Q 2.93, P 2.79, F 1.79, G 3.17, Y 1.92, T 3.29, L 2.93, M 2.85
A15: T 3.08, S 2.92, H 3.38, F 1.91, E 3.31, D 3.63, Q 3.16, N 2.67, Y 2.14, M 2.44, L 3.05, K 2.9, V 3.42, R 2.87, G 3.45, C 2.64, I 3.25, P 3.06

Variants of: B2
Assay: as above
Details: c terminus: a fixed tail appended

Protein stability index: each site, then its substitutions
E12: A 2.19, L 2.14, Y 1.79, I 2.38, W 2.19
Y6: R 2.56, K 3.05, L 2.24
Y1: R 3.48, V 3.67, W 2.61, N 3.9, H 3.76, K 3.63
Y11: G 2.84, Q 2.8, R 2.66, W 1.87, L 2.38, P 2.19, V 2.34, I 2.19
T18: L 2.11, Y 1.76, V 1.95, D 2.46, F 1.39, N 2.5
G22: M 1.96, W 1.93, C 1.92, V 2.02, Q 2.25
S14: K 2.16, G 2.37, P 2.62, E 2.83
Y10: E 3.04, V 2.82, M 2.12, G 2.49, T 2.5
F16: P 3.19, M 2.91, L 3.38, D 3.47, V 2.85
Y21: M 2.97, L 2.32, R 2.46, A 2.76, K 2.52, F 2.02
R19: L 2.21, I 2.09, G 3.07, N 2.87, P 2.53, S 2.53, V 2.26, T 2.81
S3: D 3.31, R 2.75, K 2.75, M 2.38, V 1.95, F 2.25, A 2.23, N 2.45, T 2.54, I 2.14
D9: W 2.68, M 1.96, P 1.71, Q 1.93
G5: E 3.1, Q 2.48, R 1.97, S 2.9
T17: L 2.42, N 2.35, V 2.13, F 1.85, Y 2.23, P 2.4
D8: G 1.65, K 1.91, N 1.82, V 2.47, E 2.13, M 3.87, Y 1.72, C 2.62
E23: N 2.42, L 2.18, V 2.48, H 2.19
Y15: D 3.64, N 3.06, H 2.9, F 1.69, R 2.75
E13: K 1.67, I 1.67
K4: G 2.12, L 2.06, W 2.39, R 2.44, M 2.32, C 2.63
P24: R 2.05
T20: L 2.4, Y 1.44, N 2.53, V 2.1, W 1.46, A 2.15, H 2.1, M 2.29
Q2: C 2.12, N 3.11, M 2.36, K 3.13, R 2.54
N7: Y 1.88, H 2.18, W 3.23, R 1.75, K 1.94, L 1.71
